In the data set the target is T1, FLP recombinase (Saccharomyces cerevisiae, UniProt P03870 P03870:1-423).
T1 sequence: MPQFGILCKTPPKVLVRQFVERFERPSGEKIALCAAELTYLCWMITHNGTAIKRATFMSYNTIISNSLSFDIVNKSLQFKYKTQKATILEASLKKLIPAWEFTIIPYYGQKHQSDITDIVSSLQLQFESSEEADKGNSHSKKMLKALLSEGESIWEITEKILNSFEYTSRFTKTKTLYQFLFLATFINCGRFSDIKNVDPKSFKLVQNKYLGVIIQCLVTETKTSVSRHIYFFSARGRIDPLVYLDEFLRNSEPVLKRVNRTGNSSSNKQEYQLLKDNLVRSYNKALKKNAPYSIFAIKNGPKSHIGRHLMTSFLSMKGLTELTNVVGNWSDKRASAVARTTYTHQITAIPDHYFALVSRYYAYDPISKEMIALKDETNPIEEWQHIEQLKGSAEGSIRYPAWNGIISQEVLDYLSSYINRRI
Nature of the data set: recombination of two identical sites; same buffer. The following applies: tags: untagged; expressed from recombinant adenovirus AxCAFLP (2 micron DNA FLP gene) in 293 cells; chain copies: 4. As to the method:
Whether or not FLP-dependent recombination reaction caused between the two mutant FRT sequences was studied by the assay described below. The DraI-digested plasmid DNA (1.5 μg) prepared in Example 2 and the cell extract containing FLP (25 μl) prepared in Example 1 were added to buffer containing 50 mM Tris-HCl (pH 7.5)/10 mM MgCl₂/5 mM DTT in its final concentration (the volume of reaction solution: 50 μl), and the reaction mixture was incubated at 30° C. for 30 minutes. After the termination of the reaction, 200 μl of sterilized water and 50 […] of 20 mM EDTA solution (pH 8.0) were added to the reaction mixture. The reaction mixture was extracted with phenol/chloroform and with chloroform. The resulting product was precipitated with ethanol, to obtain DNA. The resulting DNA was then solubilized in 20 μl of TE buffer (pH 8.0) containing RNaseA (20 μg/ml). Next, an entire volume of the resultant was digested with restriction enzyme NcoI, and subjected to electrophoresis on agarose gel. Thereafter, DNA bands detected by ethidium bromide (EtBr) staining were analyzed.
In order to numerically express the reaction efficiency, the ratio of […] was calculated as the recombination ratio (%) between the two FRT sequences.

B1: f72 mutant FRT (dsDNA)
DNA 1: TCGAGGACGTCGAAGTTCCTATACTTTCTACAGAATAGGAACTTCTCCGGAA
DNA 2: CTAGTTCCGGAGAAGTTCCTATTCTGTAGAAAGTATAGGAACTTCGACGTCC
On to B1, for which the activity stood at 10.9%.

B2: F3 mutant FRT (dsDNA)
DNA 1: TCGAGGACGTCGAAGTTCCTATACTATTTGAAGAATAGGAACTTCTCCGGAA
DNA 2: CTAGTTCCGGAGAAGTTCCTATTCTTCAAATAGTATAGGAACTTCGACGTCC
With B2, the activity was 3.1%.

B3: f61 mutant FRT (dsDNA)
DNA 1: TCGAGGACGTCGAAGTTCCTATACTTTCTGGAGAATAGGAACTTCTCCGGAA
DNA 2: CTAGTTCCGGAGAAGTTCCTATTCTCCAGAAAGTATAGGAACTTCGACGTCC
B3: the activity worked out at 2.6%.

B4: f2151 mutant FRT (dsDNA)
DNA 1: TCGAGGACGTCGAAGTTCCTATACTCTCCAGAGAATAGGAACTTCTCCGGAA
DNA 2: CTAGTTCCGGAGAAGTTCCTATTCTCTGGAGAGTATAGGAACTTCGACGTCC
Consider B4, for which the activity was 2.9%.

B5: f2262 mutant FRT (dsDNA)
DNA 1: TCGAGGACGTCGAAGTTCCTATACTATCTTGAGAATAGGAACTTCTCCGGAA
DNA 2: CTAGTTCCGGAGAAGTTCCTATTCTCAAGATAGTATAGGAACTTCGACGTCC
For the molecule B5, the activity was found to be 3.8%.

B6: f2161 mutant FRT (dsDNA)
DNA 1: TCGAGGACGTCGAAGTTCCTATACTCTCTGGAGAATAGGAACTTCTCCGGAA
DNA 2: CTAGTTCCGGAGAAGTTCCTATTCTCCAGAGAGTATAGGAACTTCGACGTCC
Take B6: the activity was determined as 4.5%.

The values above are taken from patent US20060094111, “DNA containing variant FRT sequences” (published 2006).
